From patent US20240117038A1 (Ablynx, published 2024)
Positions count from the first letter of the chain named. Names and notes keep the numbering of the source.

T1: human CX3CR1 (human, UniProt P49238 1-355)
T1 construct: Overexpressed on CHO K1, Ba/F3 or HEK293T cells; also called huCX3CR1; hCX3CR1
T1 sequence: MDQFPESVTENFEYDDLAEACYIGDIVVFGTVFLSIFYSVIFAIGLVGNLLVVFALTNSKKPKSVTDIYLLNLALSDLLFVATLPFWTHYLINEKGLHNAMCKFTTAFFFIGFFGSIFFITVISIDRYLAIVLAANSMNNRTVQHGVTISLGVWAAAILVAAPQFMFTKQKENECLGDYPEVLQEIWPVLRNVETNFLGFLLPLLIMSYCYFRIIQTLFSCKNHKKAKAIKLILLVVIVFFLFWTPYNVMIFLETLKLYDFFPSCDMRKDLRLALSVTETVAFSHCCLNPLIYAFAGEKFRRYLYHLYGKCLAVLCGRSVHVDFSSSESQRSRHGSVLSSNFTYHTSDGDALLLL

T2: cynomolgus CX3CR1 (cynomolgus monkey (Macaca fascicularis), UniProt P49238 1-355 (human entry))
T2 construct: Overexpressed on CHO K1 cells; also called cyno CX3CR1; cyCX3CR1
T2 chain: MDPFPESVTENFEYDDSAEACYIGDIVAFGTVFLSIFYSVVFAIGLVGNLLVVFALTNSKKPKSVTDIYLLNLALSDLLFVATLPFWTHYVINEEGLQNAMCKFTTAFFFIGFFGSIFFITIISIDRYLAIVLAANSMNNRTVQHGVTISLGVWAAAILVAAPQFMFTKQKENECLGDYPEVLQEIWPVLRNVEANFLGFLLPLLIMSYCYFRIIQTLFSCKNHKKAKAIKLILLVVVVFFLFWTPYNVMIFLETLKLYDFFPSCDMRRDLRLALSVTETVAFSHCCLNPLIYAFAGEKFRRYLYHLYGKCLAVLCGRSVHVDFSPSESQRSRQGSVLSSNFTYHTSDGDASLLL

B1: A041600011 (VHH)
chain: DVQLVESGGGSVQPGGSLRLSCAASGSIFSSTAMAWYRQAPGKRRDLVAAINTVGVTKYADSVKGRFTISRDNAKNTVYLQMNSLRPEDTALYYCTSDPRRGWDTRYWGQGTLVTVSSGGGGSGGGSEVQLVESGGGSVQPGGSLRLSCAASGSIFSSTAMAWYRQAPGKRRDLVAAINTVGVTKYADSVKGRFTISRDNAKNTVYLQMNSLRPEDTALYYCTSDPRRGWDTRYWGQGTLVTVSSGGGGSGGGSEVQLVESGGGVVQPGGSLRLSCAASGFTFRSFGMSWVRQAPGKGPEWVSSISGSGSDTLYADSVKGRFTISRDNSKNTLYLQMNSLRPEDTALYYCTIGGSLSRSSQGTLVTVSSA
notes: Trivalent ISVD construct (two anti-CX3CR1 ISVDs, one anti-albumin ISVD), C-terminal alanine included in the entry; also called 66B02_SO (E1D)-9GS-66B02_SO-9GS-ALB23002-A
B2: A041600040 (VHH)
chain: B1 chain with R171Q, A177V, N179S, V183I, P226A
notes: Trivalent ISVD construct (two anti-CX3CR1 ISVDs, one anti-albumin ISVD), C-terminal alanine included in the entry; also called 66B02_SO (E1D)-9GS-54A12_SO-9GS-ALB23002-A
B3: A041600010 (VHH)
chain: DVQLVESGGGSVQPGGSLRLSCAASGSIFSSTAMAWYRQAPGKRRDLVAAINTVGVTKYADSVKGRFTISRDNAKNTVYLQMNSLRPEDTALYYCTSDPRRGWDTRYWGQGTLVTVSSGGGGSGGGSEVQLVESGGGVVQPGGSLRLSCAASGFTFRSFGMSWVRQAPGKGPEWVSSISGSGSDTLYADSVKGRFTISRDNSKNTLYLQMNSLRPEDTALYYCTIGGSLSRSSQGTLVTVSSGGGGSGGGSEVQLVESGGGSVQPGGSLRLSCAASGSIFSSTAMAWYRQAPGKRRDLVAAINTVGVTKYADSVKGRFTISRDNAKNTVYLQMNSLRPEDTALYYCTSDPRRGWDTRYWGQGTLVTVSSA
notes: Trivalent ISVD construct (two anti-CX3CR1 ISVDs, one anti-albumin ISVD); also called 66B02_SO (E1D)-9GS-ALB23002-9GS-66B02_SO-A
B4: A041600031 (VHH)
chain: B3 chain with R295Q, A301V, N303S, V307I, P350A
notes: Trivalent ISVD construct (two anti-CX3CR1 ISVDs, one anti-albumin ISVD), C-terminal alanine included in the entry; also called 66B02_SO (E1D)-9GS-ALB23002-9GS-54A12_SO-A
B5: A041600042 (VHH)
chain: DVQLVESGGGSVQPGGSLRLSCAASGSIFSSTAMAWYRQAPGKRRDLVAAINTVGVTKYADSVKGRFTISRDNAKNTVYLQMNSLRPEDTALYYCTSDPRRGWDTRYWGQGTLVTVSSGGGGSGGGGSGGGGSGGGGSEVQLVESGGGSVQPGGSLRLSCAASGSIFSSTAMAWYRQAPGKRRDLVAAINTVGVTKYADSVKGRFTISRDNAKNTVYLQMNSLRPEDTALYYCTSDPRRGWDTRYWGQGTLVTVSSGGGGSGGGGSGGGGSGGGGSEVQLVESGGGVVQPGGSLRLSCAASGFTFRSFGMSWVRQAPGKGPEWVSSISGSGSDTLYADSVKGRFTISRDNSKNTLYLQMNSLRPEDTALYYCTIGGSLSRSSQGTLVTVSSA
notes: Trivalent ISVD construct (two anti-CX3CR1 ISVDs, one anti-albumin ISVD), C-terminal alanine included in the entry; also called 66B02_SO (E1D)-20GS-66B02_SO-20GS-ALB23002-A
B6: A041600026 (VHH)
chain: DVQLVESGGGSVQPGGSLRLSCAASGSIFSSTAMAWYRQAPGKRRDLVAAINTVGVTKYADSVKGRFTISRDNAKNTVYLQMNSLRPEDTALYYCTSDPRRGWDTRYWGQGTLVTVSSGGGGSGGGGSGGGGSGGGGSEVQLVESGGGVVQPGGSLRLSCAASGFTFRSFGMSWVRQAPGKGPEWVSSISGSGSDTLYADSVKGRFTISRDNSKNTLYLQMNSLRPEDTALYYCTIGGSLSRSSQGTLVTVSSGGGGSGGGGSGGGGSGGGGSEVQLVESGGGSVQPGGSLRLSCAASGSIFSSTAMAWYRQAPGKRRDLVAAINTVGVTKYADSVKGRFTISRDNAKNTVYLQMNSLRPEDTALYYCTSDPRRGWDTRYWGQGTLVTVSSA
notes: Trivalent ISVD construct; also called 66B02_SO (E1D)-20GS-ALB23002-20GS-66B02_SO-A
B7: 66B02_SO (VHH)
VHH: EVQLVESGGGSVQPGGSLRLSCAASGSIFSSTAMAWYRQAPGKRRDLVAAINTVGVTKYADSVKGRFTISRDNAKNTVYLQMNSLRPEDTALYYCTSDPRRGWDTRYWGQGTLVTVSS
notes: Monovalent anti-CX3CR1 ISVD; The oligomerization and Tagg assays used a 3xFLAG-His6 tagged form made in E. coli
B8: 54A12_SO (VHH)
VHH: B7 VHH with R44Q, A50V, N52S, V56I, P99A
notes: as for B7

Experiments:
human CX3CR1 [1] = molecular target: T1, human CX3CR1; test: competition flow cytometry vs soluble huCX3CL1-AF647 on CHO K1 huCX3CR1 cells, 30 uM HSA
cynomolgus CX3CR1 [2] = molecular target: T2, cynomolgus CX3CR1; test: flow cytometry on CHO K1 cyCX3CR1 cells, 30 uM HSA
Procedure: (§1) CHO cells overexpressing human or cynomolgus CX3CR1 were generated using techniques known in the art. Cells were harvested and resuspended in assay buffer (PBS, 2% FBS, 0.05% NaN3) and seeded separately in 384-well Bio-One V-bottom plates (Greiner, Cat. No. 781280), with a total of 2E04 cells seeded per well. After washing, serial dilutions of multivalent ISVD construct (starting from 250 nM, 3-fold dilution, 11 points, diluted in assay buffer), were added and incubated for 4 hours at 4° C. Binding was performed in the presence of 30 uM HSA (Sigma-Aldrich, Cat. No. A8763). Plates were then washed 3 times and cells were incubated with an anti-VHH mouse antibody (3300-fold diluted in assay buffer) for 30 minutes at 4′° C. […] Plates were finally washed 3 times and cells were resuspended in PI (Miltenyi Biotec, Cat. No. 130-093-233, 1000-fold diluted in assay buffer). Cell suspensions were analyzed with iQue Screener PLUS (Intellicyt). EC50s were estimated by dose response modelling. Curves were fit using 4 parameter logistic regression in GraphPad (GraphPad Software Inc.). A purified anti-human CX3CR1 antibody [K0124E1] (BioLegend, Cat. No. 355701/355702) was used as positive control to detect CX3CR1 expression on the cell surface.

human CX3CR1 [3] = molecular target: T1, human CX3CR1; test: flow cytometry on CHO K1 huCX3CR1 cells, 30 uM HSA
Procedure: as §1

cynomolgus CX3CR1 [4] = molecular target: T2, cynomolgus CX3CR1; test: competition flow cytometry vs soluble huCX3CL1-AF647 on CHO K1 cyCX3CR1 cells, 30 uM HSA
human CX3CR1 [5] = molecular target: T1, human CX3CR1; test: competition flow cytometry vs huCX3CL1-AF647 (2E-10 M) on CHO K1 human CX3CR1 cells, 30 uM HSA
Procedure: (§2) CHO cells overexpressing human or cyno CX3CR1 were generated using techniques known in the art. Cells were harvested and resuspended in assay buffer (PBS, 2% FBS, 0.05% NaN3). The cells were seeded in 384-well Bio-One V-bottom plates (Greiner, Cat. No. 781280), with a total of 2E04 cells seeded per well. After washing, ISVD proteins (starting from 250 nM, 3-fold dilution, 11 points, in assay buffer) were premixed with 30 μM HSA (Sigma-Aldrich, Cat. No. A8763) and human CX3CL1 labelled with AF647 (R&D Systems, Cat. No. 365-FR; labelled in house) at a final concentration of 2E-10 M (˜EC30) and added to the cells for 4 hours at 4° C. Plates were washed 3 times and cells were resuspended in PI (Miltenyi Biotec, Cat. No. 130-093-233, 1000-fold diluted in assay buffer). Cell suspensions were analysed with iQue Screener PLUS or iQue 3(Intellicyt). The IC50s were estimated by dose response modelling. Curves were fit using 4 parameter logistic regression in GraphPad (GraphPad Software Inc.).

cynomolgus CX3CR1 [6] = molecular target: T2, cynomolgus CX3CR1; test: competition flow cytometry vs huCX3CL1-AF647 (2E-10 M) on CHO K1 cyno CX3CR1 cells, 30 uM HSA
Procedure: as §2

Binder | % inhibition (human CX3CR1 [1]) [%] | IC50 (human CX3CR1 [1]) [nM] | EC50 (cynomolgus CX3CR1 [2]) [nM] | top (cynomolgus CX3CR1 [2]) | EC50 (human CX3CR1 [3]) [nM] | top (human CX3CR1 [3]) | % inhibition (cynomolgus CX3CR1 [4]) [%] | IC50 (cynomolgus CX3CR1 [4]) [nM] | IC50 (human CX3CR1 [5]) [nM] | IC50 (cynomolgus CX3CR1 [6]) [nM]
B1 | 94 | 0.66 | 0.11 | 331000 | 0.079 | 44200 | 111 | 1.2 |  | 
B2 | 101 | 0.99 | 0.14 | 363000 | 0.1 | 42200 | 117 | 0.62 |  | 
B3 | 94 | 3.8 | 0.46 | 214000 | 0.41 | 22800 | 113 | 2.4 |  | 
B4 | 96 | 2.1 | 0.32 | 300000 | 0.3 | 31300 | 105 | 1.2 |  | 
B5 | 95 | 1.4 | 0.12 | 373000 | 0.13 | 40000 | 104 | 0.67 |  | 
B6 | 102 | 1.1 | 0.25 | 290000 | 0.29 | 35600 | 104 | 1.2 |  | 
B7 |  |  |  |  |  |  |  |  | 0.48 | 2.9
B8 |  |  |  |  |  |  |  |  | 0.89 | 6
